According to patent publication US10975360B2, “Process for the modification of alkanes, fatty acids and fatty alcohols” (priority 2016, dated 2021):

What was measured:
[1] = Biotransformation of hexadecanoic acid using CFE of E. coli, Tris-HCl buffer; format: biochemical
Procedure: (§1) Expression of genes in E. coli was performed by using ZYP-5052 auto-induction medium (Table 1) with in the case of the CYP 1 mM 5-aminolevulinic acid and 0.05 mM FeCl3 added. The CYP505E3 culture was cultivated using baffled flasks and incubated at 20° C. and 180 rpm for 24 h, while the GDH, and HLADH expressing cultures were all cultivated at 25° C. and 200 rpm for 24 h. Cultures were harvested through centrifugation (6 000×g, 10 min) and 1 g (wet weight) resuspended in 2 ml, 5 ml or 10 ml Tris-HCl, Phosphate or MOPS buffer, as indicated, (pH 8, 200 mM) containing 100 mM of glucose and glycerol. CFEs were obtained by a single passage of the suspended cells through a One Shot Cell Disrupter (Constant Systems) at 207 MPa. The soluble fraction was separated from unbroken cells by centrifugation (20 000×g, 20 min).
(§2) The biotransformation reaction mixture (BRM) consisted of CYP and GDH CFE suspensions prepared from cells in Tris-HCl buffers (1 g wet weight in 2 ml buffer) mixed in a 1:1 ratio with 0.1 mM NADPH added. Dodecanoic acid, tetradecanoic acid, hexadecanoic acid, 1-tetradecanol and 1-hexadecanol (20 μl of a 255 mM stock solution in DMSO) were added to 40 ml amber glass vials containing 1 ml BRM to give final substrate concentrations of 5 mmol·LBRM^−1. These vials were placed on an orbital shaker at 20° C., 200 rpm, oscillation amplitude 26 mm. Vials were removed after 24 h for extraction. Biotransformations were stopped by adding 170 ul of 0.5M HCl, extracted with 2×500 μl EtOAc and subjected to GC-MS analysis. A sample of δ-dodecalactone in ethyl acetate (0.1 mM) was also methylated with TMSH and subjected to GC-MS analysis.

[2] = Biotransformation of dodecanoic acid using CFE of E. coli, Tris-HCl buffer; format: biochemical; conditions: C12 fatty acid; CYP505A1 only tested in CFEs of E. coli
Procedure: as §1, §2

[3] = Biotransformation of tetradecanoic acid using CFE of E. coli, Tris-HCl buffer; format: biochemical
Procedure: as §1, §2

[4] = Biotransformation of 1-tetradecanol using CFE of E. coli, Tris-HCl buffer; format: biochemical; conditions: C14 alcohol; CYP505A1 only tested in CFEs of E. coli
Procedure: as §1
as §2, with “Vials were removed after 24 h for extraction. Biotransformations were stopped by adding 170 ul of 0.5M HCl, extracted with 2×500 μl EtOAc and subjected to GC-MS analysis. A sample of δ-dodecalactone in ethyl acetate (0.1 mM) was also methylated with TMSH and subjected to GC-MS analysis.” left out

[5] = Biotransformation of tetradecanoic acid to δ-dodecalactone by CYP505An expressed in Pichia pastoris; format: cell-based; conditions: 10 mM fatty acid, 12 h, acidified; via β-oxidation
Procedure: (§3) A transformant of Pichia pastoris KM71 harbouring the gene encoding CYP505An (SEQ ID No 5) was grown and harvested as described above. The harvested cells were resuspended 1 g in 40 ml of MOPS (200 mM, 100 mM glucose, 100 mM glycerol, pH 8) buffer and 12.5 ml was transferred to each of two 500 ml Erlenmeyer flask. One flask was supplemented with 250 μl of a 500 mM dodecanoic acid stock solution (in DMSO) and the other flask with 250 μl of a 500 mM tetradecanoic acid stock solution (in DMSO) to give in each case a final concentration of 10 mM of the fatty acid. The flasks were incubated at 25° C. and 180 rpm for 12 h. Samples (800 μl) were withdrawn after 12 h and 136 μl of 5 M HCl added. These samples were stored for 5-6 h at room temperature to convert hydroxy fatty acids to the lactone. These were then extracted with ethyl acetate (2×800 μl).

[6] = Biotransformation of dodecanoic acid to δ-dodecalactone by CYP505An expressed in Pichia pastoris; format: cell-based; conditions: 10 mM fatty acid, 12 h, acidified
Procedure: as §3

[7] = C16 fatty acid, GC-MS peak height
[8] = C14 fatty acid, CYP505A1 only tested in CFEs of E. coli

B1: CYP505A1: known sub-terminal fatty acid hydroxylase of medium chain fatty acids from Fusarium oxysporum, Seq ID No 8 (protein, listed as Fusarium oxysporum)
chain: MAESVPIPEPPGYPLIGNLGEFTSNPLSDLNRLADTYGPIFRLRLGAKAPIFVSSNSLINEVCDEKRFKKTLKSVLSQVREGVHDGLFTAFEDEPNWGKAHRILVPAFGPLSIRGMFPEMHDIATQLCMKFARHGPRTPIDTSDNFTRLALDTLALCAMDFRFYSYYKEELHPFIEAMGDFLTESGNRNRRPPFAPNFLYRAANEKFYGDIALMKSVADEVVAARKASPSDRKDLLAAMLNGVDPQTGEKLSDENITNQLITFLIAGHETTSGTLSFAMYQLLKNPEAYSKVQKEVDEVVGRGPVLVEHLTKLPYISAVLRETLRLNSPITAFGLEAIDDTFLGGKYLVKKGEIVTALLSRGHVDPVVYGNDADKFIPERMLDDEFARLNKEYPNCWKPFGNGKRACIGRPFAWQESLLAMVVLFQNFNFTMTDPNYALEIKQTLTIKPDHFYINATLRHGMTPTELEHVLAGNGATSSSTHNIKAAANLDAKAGSGKPMAIFYGSNSGTCEALANRLASDAPSHGFSATTVGPLDQAKQNLPEDRPVVIVTASYEGQPPSNAAHFIKWMEDLDGNDMEKVSYAVFACGHHDWVETFHRIPKLVDSTLEKRGGTRLVPMGSADAATSDMFSDFEAWEDIVLWPGLKEKYKISDEESGGQKGLLVEVSTPRKTSLRQDVEEALVVAEKTLTKSGPAKKHIEIQLPSAMTYKAGDYLAILPLNPKSTVARVFRRFSLAWDSFLKIQSEGPTTLPTNVAISAFDVFSAYVELSQPATKRNILALAEATEDKDTIQELERLAGDAYQAEISPKRVSVLDLLEKFPAVALPISSYLAMLPPMRVRQYSISSSPFADPSKLTLTYSLLDAPSLSGQGRHVGVATNFLSHLTAGDKLHVSVRASSEAFHLPSDAEKTPIICVAAGTGLAPLRGFIQERAAMLAAGRTLAPALLFFGCRNPEIDDLYAEEFERWEKMGAVDVRRAYSRATDKSEGCKYVQDRVYHDRADVFKVWDQGAKVFICGSREIGKAVEDVCVRLAIEKAQQNGRDVTEEMARAWFERSRNERFATDVFD
For B1, the “products identified from hexadecanoic acid (GC-MS, methylated samples)” value ([1]; 5 mmol/L substrate, Tris-HCl, 24 h) was “only sub-terminally hydroxylated products”, the “other hydroxylase activities (in brackets) C16FA” value [1, 7] was “(++) (++ 0.1 million < RA < 1 million)” and the “ω-7 hydroxylase activity C16FA” value [1, 7] was “−”. The “other hydroxylase activities (in brackets) C12FA” value [2] was “(+++) (+++ 1 million < RA < 10 million)”, the “ω-7 hydroxylase activity C12FA” value [2] was “−” and the “products identified from tetradecanoic acid (GC-MS, methylated samples)” value ([3]; 5 mmol/L substrate, CFE of E. coli, Tris-HCl, 24 h) was “only sub-terminally hydroxylated products”. The “other hydroxylase activities (in brackets) C14FA” value [3, 8] was “(++) (++ 0.1 million < RA < 1 million)”, the “ω-7 hydroxylase activity C14FA” value [3, 8] was “−” and the “ω-7 hydroxylase activity C14o” value [4] was “−”.

B2: CYP505An: CYP505 cytochrome P450 monooxygenase from Aspergillus niger, SEQ ID No 5 (protein)
chain: MKDAERIPGPKPLPVVGNLLDIDPEHGLQSIIAFADKYGPLFQITINGEKQIFATSQALVDELCDESRFHKAVVTGLEVLRLLAHDGLFTAYHGERGWGIAHRILVPAFGPLRIRNMLDDMSDVAQQLCLKWARQGGSTSINITEDFTRLTLDTIALCTMGFRLNSFYNNETMHPFVQSMLYVLKEADVQANLPGIANSIRVSAQRRMHKNIEAMRTMARGIIQERRKNKNPVDDILNTLLNGRDPVTGEGMSDDSIIDNVITFLIAGHETTSGLLSFTFYFLIQHPHILKKAQEEVDETVGLAQISAQHLAELPYIDAILKESLRLMPTAPGFAVTPKKTEVLGGKWMINAGQPVNVLLPACLRDQSVFGPDADEFHPERMLAENFSKLPPNSWKPFGNGERGCIGRAFAWQEAQLVVAMILQTFDLVPDDPSYQLRIKETLTIKPDGFRIRALLRRGQTATGLSRRSMLVARDGSSGESSNHLAEARGDHAPARGQPVSFFYGSNSGTCKALAHQLASNMMSRGYTTQKLAPLDNAVGNLPRDQPVIILTTTYDGQPTDDAKKFVAWLETGNVPSLQGISYAVFGCGHHDWTQTFYRIPILIDDLMHKAGATRLAPRGAANAAVSDLFSDLEAWEETSLLPALRENFLPSNSTDFDPLNPHQIQLSLSKPRRVDLHKGLIEAKVTAVRVLTSPDTPEKRHLEFCFQGDTSLRPGDHLNILPVNPPSTVSRVLAQFNLAPDYNITVNSFNTLGLPQATPVSASELFSSYVELCQPATRNNLKALIAATQSDPDKQELNRLYDSYEFIVRDKRVSVLDLLEQFPSISLPIAAFISMLPALRVRTYSLSMAPSFKPSHSSLTFSVINEPAWRGSGQHLGVASNYLASLTSGSIFYFSPRPAKESFHLPKDPSNTPIIMICAGSGLAPFLSFIQDRMVLKQQYKPLAKAFLFFGCRGRSLDDLYHEELSEFEAAGVVEIRRAYSKTPDFDIAKGCRYVQHRLVTEGQAILSLWSQNATIYVCGSTNMAKGVEAVLQNMLGPLPKERYVTEIF
modifications: Aspergillus niger
With B2 the “δ-dodecalactone production from tetradecanoic acid” value [5] was “δ-dodecalactone was produced” and the “δ-dodecalactone production from dodecanoic acid” value [6] was “δ-dodecalactone was produced”.
